Assay results from US20190365916A1 (Bayer, published 2019).
Where a chain is given by its changes, count along the chain named.

T1: receptor protein CXCR5 (CD185) (human, UniProt P32302 1-372)
T1 sequence: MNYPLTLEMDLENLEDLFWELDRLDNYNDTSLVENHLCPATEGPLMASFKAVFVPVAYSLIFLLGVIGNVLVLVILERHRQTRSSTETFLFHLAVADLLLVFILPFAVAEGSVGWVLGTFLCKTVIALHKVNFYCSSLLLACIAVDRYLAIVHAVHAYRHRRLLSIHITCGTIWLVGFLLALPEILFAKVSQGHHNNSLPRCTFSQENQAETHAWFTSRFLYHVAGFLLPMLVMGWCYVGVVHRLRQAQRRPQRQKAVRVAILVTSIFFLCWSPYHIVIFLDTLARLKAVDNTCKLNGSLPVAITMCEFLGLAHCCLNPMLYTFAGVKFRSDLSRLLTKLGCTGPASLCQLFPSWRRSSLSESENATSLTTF

B1: ADC Example 1x-9580 (anti-CXCR5 TPP-9580 coupled with Intermediate F325) (antibody, human IgG1, kappa, V domains shown)
VH: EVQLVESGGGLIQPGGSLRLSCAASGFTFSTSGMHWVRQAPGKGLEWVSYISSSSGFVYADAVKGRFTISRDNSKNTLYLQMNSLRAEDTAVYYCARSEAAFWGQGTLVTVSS
VL: DIVMTQSPLSLPVTPGEPASISCRSQKSRLSRMGITPLNWYLQKPGQSPQLLIYRMSNLASGVPDRFSGSGSGTDFTLKISRVEAEDVGVYYCAQFLEYPPTFGQGTKLEIKR
modifications: KSP inhibitor toxophore-linker of formula (I) (from Intermediate F325) on sulfur atoms of cysteine side chains of the partially reduced antibody; DAR 4.2; positions not given
B2: ADC Example 1x-9574 (anti-CXCR5 TPP-9574 coupled with Intermediate F325) (antibody, human IgG1, kappa, V domains shown)
VH: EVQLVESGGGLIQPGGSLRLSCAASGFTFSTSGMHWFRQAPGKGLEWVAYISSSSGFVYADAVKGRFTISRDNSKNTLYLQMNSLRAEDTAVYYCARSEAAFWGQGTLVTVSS
VL: B1 VL
modifications: KSP inhibitor toxophore-linker of formula (I) (from Intermediate F325) on sulfur atoms of cysteine side chains of the partially reduced antibody; DAR 4.1; positions not given
B3: ADC Example 1x-9024 (anti-CXCR5 TPP-9024 coupled with Intermediate F325) (antibody, human IgG1, kappa, V domains shown)
VH: EVQLVESGGGLVQPGKSLKLSCSASGFTFSTSGMHWFRQAPGKGLDWVAYISSSSGFVYADAVKGRFTISRDNAQNTLYLQLNSLKSEDTAIYYCARSEAAFWGQGTLVTVSS
VL: DIVLTQAPRSVSVTPGESASISCRSNKSRLSRMGITPLNWYLQKPGKSPQLLIYRMSNLASGVPDRFSGSGSETDFTLKISKVETEDVGVYYCAQFLEYPPTFGSGTKLEIKR
modifications: KSP inhibitor toxophore-linker of formula (I) (from Intermediate F325) on sulfur atoms of cysteine side chains of the partially reduced antibody; DAR 3.8; positions not given
B4: ADC Example 1c-8988 (anti-CD123 TPP-8988 coupled with Intermediate F325) (antibody, human IgG1, kappa, V domains shown)
VH: EVQLLESGGGLVQPGGSLRLSCAVSDYSITSGYYWNWIRQAPGKKLEWMGYISYDGSNNYNPSLKNGRITISRDTSKNTFYLQMNSLRAEDTAVYYCARGEGFYFDSWGQGTLVTVSS
VL: EIVLTQSPGTLSLSPGERATLSCKSSQSLFFGSTQKNYLAWYQQKPGQAPRLLIYWASTRESGIPDRFSGSGSGTDFTLTISRLEPEDFAVYYCQQYYNYPWTFGQGTKLEIKR
modifications: KSP inhibitor toxophore-linker of formula (I) (from Intermediate F325) on sulfur atoms of cysteine side chains of the partially reduced antibody; DAR 3.5; positions not given
B5: ADC Example 1c-8987 (anti-CD123 TPP-8987 coupled with Intermediate F325) (antibody, human IgG1, kappa, V domains shown)
VH: QVQLVQSGAEVKKPGSSVKVSCKASGGTFSDYYMKWVRQAPGQGLEWMGDIIPSNGATFYNQKFKGQVTITADESTSTAYMELSSLRSEDTAVYYCARSHLLRASWFAYWGQGTLVTVSS
VL: DIVMTQSPDSLAVSLGERATINCESSQSVLNSGNQKNYLTWYQQKPGQPPKLLIYWASTRESGVPDRFSGSGSGTDFTLTISSLQAEDVAVYYCQNDYSYPYTFGQGTKLEIKR
modifications: KSP inhibitor toxophore-linker of formula (I) (from Intermediate F325) on sulfur atoms of cysteine side chains of the partially reduced antibody; DAR 3.7; positions not given
B6: ADC Example 1c-9476 (anti-CD123 TPP-9476 coupled with Intermediate F325) (antibody, human IgG1, kappa, V domains shown)
VH: B5 VH with Q67R
VL: B5 VL
modifications: KSP inhibitor toxophore-linker of formula (I) (from Intermediate F325) on sulfur atoms of cysteine side chains of the partially reduced antibody; DAR 3.1; positions not given
B7: anti-CXCR5 antibody TPP-9574 (antibody, human IgG1, kappa, V domains shown)
VH: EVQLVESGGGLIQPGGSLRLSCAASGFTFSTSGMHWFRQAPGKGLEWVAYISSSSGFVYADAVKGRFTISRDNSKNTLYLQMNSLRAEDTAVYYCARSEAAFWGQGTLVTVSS
VL: B1 VL
notes: Humanized anti-CXCR5 IgG; In the internalization assays it carried CypHer 5E dye on lysines
B8: anti-CXCR5 antibody TPP-9580 (antibody, human IgG1, kappa, V domains shown)
VH: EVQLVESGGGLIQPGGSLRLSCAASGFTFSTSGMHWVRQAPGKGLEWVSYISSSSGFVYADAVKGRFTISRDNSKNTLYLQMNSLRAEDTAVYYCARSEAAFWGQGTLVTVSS
VL: B1 VL
notes: as for B7
B9: anti-CXCR5 antibody TPP-9024 (antibody, human IgG1, kappa, V domains shown)
VH: B3 VH
VL: B3 VL
notes: In the internalization assays it carried CypHer 5E dye on lysines
B10: anti-CD123 antibody TPP-8988 (antibody, human IgG1, kappa, V domains shown)
VH: B4 VH
VL: B4 VL
notes: Humanized anti-CD123 IgG; In the internalization assays it carried CypHer 5E dye on lysines
B11: anti-CD123 antibody TPP-8987 (antibody, human IgG1, kappa, V domains shown)
VH: B5 VH
VL: B5 VL
notes: as for B10
B12: anti-CD123 antibody TPP-9476 (antibody, human IgG1, kappa, V domains shown)
VH: B5 VH with Q67R
VL: B5 VL
notes: as for B10
B13: reference ADC R1x-9574 (anti-CXCR5 TPP-9574 coupled with Intermediate F104) (antibody, human IgG1, kappa, V domains shown)
VH: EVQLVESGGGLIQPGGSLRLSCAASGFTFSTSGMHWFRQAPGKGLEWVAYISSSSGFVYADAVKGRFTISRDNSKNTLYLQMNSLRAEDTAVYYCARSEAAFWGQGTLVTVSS
VL: B1 VL
modifications: reference KSP inhibitor toxophore-linker (from Intermediate F104) on sulfur atoms of cysteine side chains of the partially reduced antibody; DAR 3.9; positions not given
B14: reference ADC R1x-9580 (anti-CXCR5 TPP-9580 coupled with Intermediate F104) (antibody, human IgG1, kappa, V domains shown)
VH: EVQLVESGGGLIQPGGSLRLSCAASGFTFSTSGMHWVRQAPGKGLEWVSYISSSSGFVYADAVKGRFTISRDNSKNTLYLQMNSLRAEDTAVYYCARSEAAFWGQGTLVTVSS
VL: B1 VL
modifications: reference KSP inhibitor toxophore-linker (from Intermediate F104) on sulfur atoms of cysteine side chains of the partially reduced antibody; DAR 3.7; positions not given
B15: reference ADC R1x-9024 (anti-CXCR5 TPP-9024 coupled with Intermediate F104) (antibody, human IgG1, kappa, V domains shown)
VH: B3 VH
VL: B3 VL
modifications: reference KSP inhibitor toxophore-linker (from Intermediate F104) on sulfur atoms of cysteine side chains of the partially reduced antibody; DAR 3.7; positions not given
B16: reference ADC R1c-8988 (anti-CD123 TPP-8988 coupled with Intermediate F104) (antibody, human IgG1, kappa, V domains shown)
VH: B4 VH
VL: B4 VL
modifications: reference KSP inhibitor toxophore-linker (from Intermediate F104) on sulfur atoms of cysteine side chains of the partially reduced antibody; DAR 3.4; positions not given
B17: reference ADC R1c-8987 (anti-CD123 TPP-8987 coupled with Intermediate F104) (antibody, human IgG1, kappa, V domains shown)
VH: B5 VH
VL: B5 VL
modifications: reference KSP inhibitor toxophore-linker (from Intermediate F104) on sulfur atoms of cysteine side chains of the partially reduced antibody; DAR 1.5; positions not given
B18: reference ADC R1c-9476 (anti-CD123 TPP-9476 coupled with Intermediate F104) (antibody, human IgG1, kappa, V domains shown)
VH: B5 VH with Q67R
VL: B5 VL
modifications: reference KSP inhibitor toxophore-linker (from Intermediate F104) on sulfur atoms of cysteine side chains of the partially reduced antibody; DAR 3.1; positions not given

Molecular target: T1, receptor protein CXCR5 (CD185)
Test: cell-based or functional assay

In order of falling “IC50 [M] of growth inhibition, MTT assay, Rec-1 cells (CXCR5-positive)” value:
1. B1  2.78e-09 M
2. B3  1.34e-10 M
3. B2  2.94e-11 M

Molecular target: T2, surface receptor CD123 (IL3RA) (human, UniProt P26951 19-378)
Test: cell-based or functional assay

T2 sequence (P26951 19-378 limits assumed): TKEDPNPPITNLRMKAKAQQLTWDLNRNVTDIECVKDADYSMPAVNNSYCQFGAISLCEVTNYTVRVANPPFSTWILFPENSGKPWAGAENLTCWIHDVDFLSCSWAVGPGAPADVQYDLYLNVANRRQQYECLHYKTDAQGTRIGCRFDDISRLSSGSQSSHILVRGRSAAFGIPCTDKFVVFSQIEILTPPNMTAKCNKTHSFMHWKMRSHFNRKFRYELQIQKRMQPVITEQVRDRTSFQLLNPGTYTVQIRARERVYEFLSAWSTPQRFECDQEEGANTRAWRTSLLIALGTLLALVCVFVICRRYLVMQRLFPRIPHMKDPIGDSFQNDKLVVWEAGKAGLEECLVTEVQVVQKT

In order of falling “IC50 [M] of growth inhibition, MTT assay, MOLM-13 cells (CD123-positive)” value:
1. B6  2.85e-10 M
2. B5  2.1e-10 M
3. B4  3.02e-11 M

In order of rising “IC50 [M] of growth inhibition, MTT assay, MV-4-11 cells (CD123-positive)” value:
1. B5  1.26e-09 M
2. B6  2.78e-09 M
3. B4  2.94e-08 M

Molecular target: T1, receptor protein CXCR5 (CD185)
Test: cell binding assay, CypHer 5E-labelled against unlabelled antibody

B7: binds.
B8: binds.
B9: binds.

Molecular target: T2, surface receptor CD123 (IL3RA)
Test: as above

B10: binds.
B11: binds.
B12: binds.

Molecular target: T1, receptor protein CXCR5 (CD185)
Test: cell-based or functional assay
Remark: another data set of the same source

In order of falling “IC50 [M] of growth inhibition, MTT assay, Rec-1 cells (CXCR5-positive)” value:
1. B13  2.62e-10 M
2. B15  1.84e-10 M
3. B14  7.16e-11 M

Molecular target: T2, surface receptor CD123 (IL3RA)
Test: cell-based or functional assay
Remark: another data set of the same source

In order of rising “IC50 [M] of growth inhibition, MTT assay, MOLM-13 cells (CD123-positive)” value:
1. B18  3.04e-10 M
2. B16  4.26e-09 M
3. B17  7.57e-08 M

In order of rising “IC50 [M] of growth inhibition, MTT assay, MV-4-11 cells (CD123-positive)” value:
1. B18  5.3e-09 M
2. B16  3.27e-08 M
3. B17  1.33e-07 M
